# Measurements taken from article PMC8395316 (2021).
# Molecular target: Spike-RBD RBD (Severe acute respiratory syndrome …, UniProt P0DTC2)
# Experiment: ELISA
binder,measurement,value
Platelet Factor 4 (protein) SQVRPRHITSLEVIKAGPHCPTAQLIATLKNGRKICLDLQAPLYKKIIKKLLES,Kd,~180 nM
